Laboratory results as given in patent CN106914229A.

Columns and labels:
[1] = molecular target: Myc-GST融合蛋白(Myc标签与谷胱甘肽融合的蛋白); test: ELISA on coated Myc-GST (5 μg/mL), anti-His-HRP detection, heat tolerance test at 90℃
[2] = molecular target: Myc-GST融合蛋白(Myc标签与谷胱甘肽融合的蛋白); test: ELISA on coated Myc-GST (5 μg/mL), anti-His-HRP detection, heat tolerance test at 80℃
[3] = molecular target: Myc-GST融合蛋白(Myc标签与谷胱甘肽融合的蛋白); test: ELISA on coated Myc-GST (5 μg/mL), anti-His-HRP detection, heat tolerance test at 70℃

B1: 抗c-Myc标签单域重链抗体 (VHH)
VHH: QLQLVESGGGSVQPGGSLTLSCSASGFNISQYSVGWFREAPGEEREGISCLDIDGKITTFSDAIQGRFTIARDNAANMIYLHMDALNPLDTAVYRCVARWDCSRHDFITQKTATGIWGPGTQVTVSA
What does the source list for B1?
OD450 [1]: 1.1 OD450; OD450 [2]: 1.3 OD450; OD450 [3]: 1.5 OD450
